Results reported in article PMC10412621.

Target: full-length human leucine-rich repeat kinase 1 (LRRK1, residues 1-2015) (human) (UniProt Q38SD2)
Experiment: mass photometry; undiluted 'monomer' and 'dimer' gel filtration fractions added to detergent-free buffer (20 mM Tris, 150 mM NaCl, 5 mM MgCl2 pH 8.3); OneMP mass photometer; dimer fraction held monomers and dimers at approximately a 1:2 ratio, alongside higher-order species

- stoichiometry N: 2
Substance: full-length human leucine-rich repeat kinase 1 (LRRK1, residues 1-2015) (from UniProt Q38SD2 1-2015) (enzyme)
